In patent US20260258110A1, “VOLTAGE GATED SODIUM CHANNEL-SPECIFIC PEPTIDE APTAMERS AND USES THEREOF” (The Medical College of Wisconsin, Inc., priority 2023, published 2026):
Read-outs that look alike come from different tables or passages of the source. No end group written: not given here.

How the values were obtained:
human Nav1.8 = biological target: T1, human Nav1.8 (Homo sapiens, UniProt Q9Y5Y9, DEL1030-1030/M1713V); assay: Whole-cell voltage-clamp of INa1.8 in HEK1.8 stable cells; format: cell-based; set-up: sensitivity of INa1.8 to channel blocker: dose or concentration left out as unconfirmed
T1 construct: cell line made in house

BK potassium channels = assay: BK IKv recording in NG108-15 cells; format: cell-based
hNav1.7 = biological target: T2, hNav1.7 (Homo sapiens, UniProt Q15858); assay: Whole-cell voltage-clamp of INa1.7 in HEK1.7 cells after plasmid transfection; format: cell-based; conditions: for INa1.7 in presence of NaviPA1 mutants: 3-4 days after transfection
T2 construct: the Nav1.7 antibody detected full-length Nav1.7 only in HEK1.7 cells
Experimental: The stable expression of each construct was verified by transfection into HEK293 cells stably expressing human wild-type Nav1.7 (HEK1.7 cells), followed by immunoblots (IB). Representative tests for GFPlinker (GFP), 1.7iPAs (1, 2, 3, 4, 6) were shown (FIG. 1H, I). Initial screening experiments by whole-cell voltage-clamp of INa1.7 in HEK1.7 cells, transfected with plasmids encoding nine 1.7iPAs (1.7iPA1-9), were performed to characterize the INa1.7. The presence of 9 different 1.7iPAs in HEK1.7 cells on peak INa1.7 density (3 days after transfection) were summarized in FIG. 1F, in which the data points recorded by at least 2 replicates were combined. […] These experiments thus identified 1.7iPA1 and 1.7iPA4 (both derived from ICL1), as well as 1.7iPA6 (from ICL2), as effective iPAs (>50% INa1.7 inhibition). We next focused on the validation of INa1.7 inhibition and channel kinetics by 1.7iPA1, 4, and 6 on HEK1.7 cells in new experiments. […] The 1.7iPA1 peptide is polyampholytic, enriched with 38.6% positively charged arginine or lysine (17/44), 23% of serine (10/44), 14% acidic residues (6/44); and is highly conserved between rodents and humans (FIG. 2F).
EP recordings were performed, as we described previously with minor modifications at room temperature (22~25° C.) (10, 12), in a blind manner where the electrophysiologist was not aware of the treatment. Patch pipettes 0.9-2.5M2 resistance were formed from borosilicate glass (King Precision Glass Co., Claremont, CA) and fire polished. Recordings were made with an […] amplifier (Molecular Devices, Downingtown, PA). Signals were filtered at 5 kHz and sampled at 20 and 50 kHz (adopted from literature) (13-22) with a Digidata 1440A digitizer and pClamp10 software (Molecular Devices, San Jose, CA). Series resistance (3-5M (2) was monitored before and after the recordings, and data were discarded if the resistance changed by 20%. After achieving the whole-cell recording, capacitance (Cm) and series resistance (Rs) were compensated accordingly.
Sodium channel current (INa) recording in cultured cell lines. Whole-cell voltage-clamp to recording INa was performed in HEK1.7, HEK1.1, HEK1.3, HEK1.6, HEK1.5, HEK1.8, CHO1.8, NG108-15 cells, and F11cells in current-density (I-V) and fast-inactivation voltage protocols. External solution consists of the following (in mM): 110 NaCl, 20 tetraethylammonium-Cl, […]), 0.1 CaCl2, 5 MgCl2, 10 HEPES and 5.56 mM glucose (pH 7.4, 310-315 mosM/L). The internal pipette solution consisted of (in mM): 10 NaCl, 130 CsCl, 5 MgCl2, 5 EGTA, 2.5 Na2+ATP and 10 HEPES (pH 7.2). After formation of a tight seal (maximal leak amplitude <150 pA), membrane resistance and capacitance were determined. The voltage dependence of activation was assessed from holding potential using 50 ms pulses (test-pulse) to a range of test potentials from −100 mV to +50 mV in 5 mV or 10 mV incremental steps with an interval of 5 s. Current density was calculated by normalizing maximal peak currents with cell capacitance. The voltage dependence of steady-state fast inactivation was measured using a two-step protocol. A 500 ms pre-pulse with various potentials ranging from Vhold to +10 mV in 5 or 10 mV incremental steps was used to inactivate the channels. This pre-pulse was immediately followed by a 40 ms test-pulse at 0 mV to determine the remaining fraction of available channels. Inward current measured during the test-pulse to 0 mV was normalized to the cell's maximum test-pulse inward current. To determine the conductance-voltage (I-V) relationships of voltage-dependent activation, the peak current densities during each voltage command step were fitted to a smooth curve with a Boltzmann equation: I=Gmax (V-Erev)/[(1+exp [(V−V50)/k))], which provided the maximum conductance (Gmax). Normalized activation curves were fitted with a Boltzmann equation G/Gmax=1/(1+exp (V50-Vm)/k), where G was calculated as follows: G=I/(Vm−Erev). […]

[1] = tested on: mechanical hypersensitivity; conditions: after i.p. injection; cited from earlier work
DRG neurons = assay: Whole-cell current-clamp of dissociated DRG neurons from TNI rats (excitability); format: cell-based, rat; conditions: transduced small/medium-sized DRG neurons, male TNI rats, compared to sham
Description: Increased excitability of nociceptive PSNs is a fundamental process underlying neuropathic pain (46). We therefore examined whether AAV6-NaviPA1 treatment reverses the enhanced neuronal excitability of nociceptive PSNs following TNI (12, 47), using the whole-cell current-clamp AP recording of DRG dissociated neurons from rats after the treatment protocol shown in FIG. 7B. […] We therefore recorded from randomly chosen small/medium-sized neurons (<35 μm in diameter) (51) in the cultures from dissociated L4 and L5 DRG. Transduced neurons were identified by GFP fluorescence, and excitability was evaluated by measuring rheobase and repetitive action potential (AP) firing during 250 ms current pulses stepping from 100 pA and 280 pA current injection. […]
Whole-cell current-clamp recording on dissociated DRG neurons (male rats). […] The membrane input resistance was calculated by dividing the ending amplitude of steady-state hyperpolarizing voltage deflection by the injected current (27). […] The baseline potentials were recorded for 20 ms before the stimulus pulses were injected into the neurons. […] AP frequency was determined by quantifying the number of APs elicited in response to depolarizing current injections (250 ms).

Nav1.7 = biological target: T3, Nav1.7 (Homo sapiens, UniProt Q15858); assay: Immunoblot of membrane Nav1.7 in fractionated HEK1.7 cells (intracellular trafficking); format: cell-based; conditions: fractionated HEK1.7 cells after transfection
T3 construct: the Nav1.7 antibody detected full-length Nav1.7 only in HEK1.7 cells
Experimental: Since Nav1.7 is an integral membrane protein, we therefore tested whether NaviPA1 expression in the HEK1.7 cells would interrupt Nav1.7 intracellular trafficking. […] Studies have shown that IDRs in the membrane proteins engage in interactions with the membrane (33). To test whether NaviPA1 interference of Nav1.7 might be via […] of Nav1.7, GFP affinity pull-down by ChromoTek GFP-Trap (ChromoTek, Rosemont, IL) was performed after transfection of GFP-NaviPA1 in HEK1.7 cells using GFPlinker (GFP) and GFP-1.7iPA2 (FIG. 1) as the controls. Cell lysates were prepared by a lysis buffer containing 0.5% Nonidet p40, a ‘non-denaturing’ mild lysis detergent, for preventing interaction breaking and maximizing the retention of NaviPA1-protein interactions (34). […] It has been reported that polybasic IDRs in transmembrane proteins preferably bind to negatively charged lipids (36, 37). We reasoned that NaviPA1 might be able to bind phosphoinositides, and this hypothesis was tested by using phosphatidylinositol phosphate (PIP) strips (Echelon PIP Strip, Salt Lake City, UT). […]
NaviPA1 is a polybasic arginine/lysine and serine-enriched peptide. […] However, the full-length Nav1.7 membrane integration, which is determined by its TM domains but not intracellular sequences, was unaffected in the presence of NaviPA1 (FIG. 6F). […]

[2] = HEK1.7 cells, initial screening

T1 sequence (Q9Y5Y9 with tags, fused parts or gaps DEL1030-1030/M1713V): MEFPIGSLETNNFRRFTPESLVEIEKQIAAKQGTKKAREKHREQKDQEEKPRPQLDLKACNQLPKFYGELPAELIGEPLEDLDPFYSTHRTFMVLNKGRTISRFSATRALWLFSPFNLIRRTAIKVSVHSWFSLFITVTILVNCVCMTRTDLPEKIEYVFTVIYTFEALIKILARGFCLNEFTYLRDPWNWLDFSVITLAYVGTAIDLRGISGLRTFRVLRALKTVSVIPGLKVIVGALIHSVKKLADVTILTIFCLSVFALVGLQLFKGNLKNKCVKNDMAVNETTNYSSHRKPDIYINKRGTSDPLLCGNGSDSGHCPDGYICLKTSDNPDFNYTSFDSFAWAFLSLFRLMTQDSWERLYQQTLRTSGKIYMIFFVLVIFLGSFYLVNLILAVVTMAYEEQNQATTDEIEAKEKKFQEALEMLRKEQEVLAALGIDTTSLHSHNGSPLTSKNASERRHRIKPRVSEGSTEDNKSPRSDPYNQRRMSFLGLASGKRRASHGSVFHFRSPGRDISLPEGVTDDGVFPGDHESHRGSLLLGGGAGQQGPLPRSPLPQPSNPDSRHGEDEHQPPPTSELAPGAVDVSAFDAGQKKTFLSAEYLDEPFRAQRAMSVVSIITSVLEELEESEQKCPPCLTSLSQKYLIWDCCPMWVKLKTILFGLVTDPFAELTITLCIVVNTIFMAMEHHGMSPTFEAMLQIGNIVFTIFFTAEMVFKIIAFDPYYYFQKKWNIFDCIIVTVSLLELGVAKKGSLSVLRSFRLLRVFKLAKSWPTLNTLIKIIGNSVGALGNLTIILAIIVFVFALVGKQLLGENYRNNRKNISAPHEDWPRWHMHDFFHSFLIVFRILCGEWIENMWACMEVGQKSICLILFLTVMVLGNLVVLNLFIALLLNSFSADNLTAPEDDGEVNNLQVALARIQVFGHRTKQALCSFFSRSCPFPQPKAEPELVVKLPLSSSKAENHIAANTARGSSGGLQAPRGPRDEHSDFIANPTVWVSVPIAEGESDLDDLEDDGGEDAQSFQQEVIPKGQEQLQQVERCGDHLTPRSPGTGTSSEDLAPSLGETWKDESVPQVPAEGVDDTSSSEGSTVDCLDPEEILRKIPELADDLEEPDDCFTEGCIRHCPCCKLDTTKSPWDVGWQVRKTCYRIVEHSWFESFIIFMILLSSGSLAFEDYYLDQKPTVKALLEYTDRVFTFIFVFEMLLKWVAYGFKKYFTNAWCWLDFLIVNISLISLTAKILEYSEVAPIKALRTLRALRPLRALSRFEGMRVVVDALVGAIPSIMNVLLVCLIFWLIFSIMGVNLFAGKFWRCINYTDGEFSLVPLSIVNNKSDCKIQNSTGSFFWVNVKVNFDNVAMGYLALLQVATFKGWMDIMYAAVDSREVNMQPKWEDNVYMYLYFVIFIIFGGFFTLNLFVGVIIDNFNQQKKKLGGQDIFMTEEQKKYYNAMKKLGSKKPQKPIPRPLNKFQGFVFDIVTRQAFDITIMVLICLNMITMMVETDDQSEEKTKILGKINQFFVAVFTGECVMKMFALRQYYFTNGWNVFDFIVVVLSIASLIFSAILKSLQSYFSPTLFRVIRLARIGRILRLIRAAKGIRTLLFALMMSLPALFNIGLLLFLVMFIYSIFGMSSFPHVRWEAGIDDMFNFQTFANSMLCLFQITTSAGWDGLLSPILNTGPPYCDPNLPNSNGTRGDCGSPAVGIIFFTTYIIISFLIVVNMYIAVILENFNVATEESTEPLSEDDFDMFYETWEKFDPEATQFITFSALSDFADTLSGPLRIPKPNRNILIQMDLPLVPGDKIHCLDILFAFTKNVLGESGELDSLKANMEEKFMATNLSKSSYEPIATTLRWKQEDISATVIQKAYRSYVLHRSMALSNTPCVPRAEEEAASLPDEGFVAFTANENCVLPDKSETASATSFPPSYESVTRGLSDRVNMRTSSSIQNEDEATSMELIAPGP
T2 sequence (Q15858 whole entry): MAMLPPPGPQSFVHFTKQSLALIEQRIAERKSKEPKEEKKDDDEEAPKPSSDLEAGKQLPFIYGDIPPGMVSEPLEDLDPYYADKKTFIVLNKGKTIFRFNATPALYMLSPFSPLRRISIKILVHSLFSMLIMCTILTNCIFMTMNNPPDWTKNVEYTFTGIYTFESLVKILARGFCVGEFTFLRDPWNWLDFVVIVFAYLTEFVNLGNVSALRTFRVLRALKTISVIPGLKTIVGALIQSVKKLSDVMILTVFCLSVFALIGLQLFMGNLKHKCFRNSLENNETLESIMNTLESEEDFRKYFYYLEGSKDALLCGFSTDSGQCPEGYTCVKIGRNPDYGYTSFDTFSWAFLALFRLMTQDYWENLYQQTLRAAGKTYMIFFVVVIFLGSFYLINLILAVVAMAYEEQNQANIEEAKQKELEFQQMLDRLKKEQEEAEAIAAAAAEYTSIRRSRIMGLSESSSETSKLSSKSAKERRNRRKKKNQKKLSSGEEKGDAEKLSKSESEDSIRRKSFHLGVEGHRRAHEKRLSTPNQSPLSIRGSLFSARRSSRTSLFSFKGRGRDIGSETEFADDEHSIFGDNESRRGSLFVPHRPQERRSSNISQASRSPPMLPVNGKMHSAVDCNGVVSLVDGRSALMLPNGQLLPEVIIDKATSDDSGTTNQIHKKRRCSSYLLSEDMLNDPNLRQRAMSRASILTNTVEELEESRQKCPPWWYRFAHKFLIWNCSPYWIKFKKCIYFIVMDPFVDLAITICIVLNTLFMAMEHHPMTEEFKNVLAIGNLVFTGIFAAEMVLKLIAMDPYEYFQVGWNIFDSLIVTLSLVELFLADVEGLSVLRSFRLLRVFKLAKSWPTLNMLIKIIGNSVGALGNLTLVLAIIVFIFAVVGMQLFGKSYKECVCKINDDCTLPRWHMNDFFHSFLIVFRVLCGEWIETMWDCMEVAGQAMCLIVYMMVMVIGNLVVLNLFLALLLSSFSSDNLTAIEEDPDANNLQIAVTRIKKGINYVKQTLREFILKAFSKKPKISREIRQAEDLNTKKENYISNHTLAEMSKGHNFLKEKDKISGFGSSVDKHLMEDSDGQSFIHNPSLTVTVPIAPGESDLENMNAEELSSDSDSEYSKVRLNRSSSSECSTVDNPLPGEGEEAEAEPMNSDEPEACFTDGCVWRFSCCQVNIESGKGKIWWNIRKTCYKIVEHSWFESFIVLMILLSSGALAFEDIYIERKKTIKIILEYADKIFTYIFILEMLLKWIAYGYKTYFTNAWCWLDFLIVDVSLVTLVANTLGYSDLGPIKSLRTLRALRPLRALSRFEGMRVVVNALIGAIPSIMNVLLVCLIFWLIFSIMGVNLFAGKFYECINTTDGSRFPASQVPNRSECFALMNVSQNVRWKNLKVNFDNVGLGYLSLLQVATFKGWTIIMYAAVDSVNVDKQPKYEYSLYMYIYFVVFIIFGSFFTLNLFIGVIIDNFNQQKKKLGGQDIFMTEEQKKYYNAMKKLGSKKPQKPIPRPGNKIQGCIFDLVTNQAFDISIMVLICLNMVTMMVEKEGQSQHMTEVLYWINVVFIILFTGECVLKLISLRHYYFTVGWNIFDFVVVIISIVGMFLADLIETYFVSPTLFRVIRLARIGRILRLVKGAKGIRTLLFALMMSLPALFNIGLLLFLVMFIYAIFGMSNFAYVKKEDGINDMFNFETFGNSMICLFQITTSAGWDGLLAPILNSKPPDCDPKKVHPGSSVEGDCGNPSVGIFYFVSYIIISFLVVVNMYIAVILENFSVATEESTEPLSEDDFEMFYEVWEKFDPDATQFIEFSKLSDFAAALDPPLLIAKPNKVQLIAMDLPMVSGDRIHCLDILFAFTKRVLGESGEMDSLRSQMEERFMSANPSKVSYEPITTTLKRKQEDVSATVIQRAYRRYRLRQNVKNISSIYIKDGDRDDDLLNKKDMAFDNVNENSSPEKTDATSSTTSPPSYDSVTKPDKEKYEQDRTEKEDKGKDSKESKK
T3 sequence (Q15858 whole entry): as above

## 1.7/1.8iPA: disordered polyacidic 38mer from Nav1.7 intracellular loop 2 with AnkG and Pdzd2-I binding domains; dual Nav1.7/1.8 inhibitory peptide aptamer (PGESDLEIMNTEELSSDSDSDYSKEKRNRSSSSECSTV)
Human Nav1.8; preliminary data, expression in HEK1.8 cells
  effect on INa1.8: suppresses
BK potassium channels
  effect on BK IKv: No change
hNav1.7; preliminary data, 38mer expressed in HEK1.7 cells
  effect on INa1.7: inhibits
hNav1.7; preliminary data, HEK1.7 cells
  Nav1.7 voltage-gated activation: possibly desensitized

## COc1cc(NC(=O)c2ccc(-c3ccc(Cl)cc3)o2)cc(OC)c1 [A803467, reference compound]
Human Nav1.8; 100 nM, HEK1.8 cells
  INa1.8 inhibition: 85%
Human Nav1.8; HEK1.8 cells
  sensitivity of INa1.8 to channel blocker: sensitive

## NC1=N[C@H](O)[C@H]2[C@H]3O[C@]4(O)O[C@@H]([C@@H](O)[C@@]2(N1)[C@@H]4O)[C@]3(O)CO [TTX, tetrodotoxin, reference compound]
Human Nav1.8
  sensitivity of INa1.8 to channel blocker: resistant
hNav1.7
  Peak INa1.7: 2 ± 1 (10) pA/pF

## NCC1(CC(=O)O)CCCCC1 [gabapentin, Gabapentin]
[1]
  time of maximal reduction of mechanical hypersensitivity: 30 to 60 min

## Nav1.7iPA3: inert peptide from N-terminus of Nav1.7 (SEQ ID NO: 3), used as control NP (SEEKAKEHKDEKKDDEEEGPKPSSDLEAGKQ)
DRG neurons
  rheobase and frequency of evoked APs in neurons from TNI rats: no significant effects
hNav1.7; [2]
  Activation V50: 25.4 ± 1.2 (22) mV
  Inactivation V50: 61.6 ± 2 (18) mV
hNav1.7; HEK1.7 cells, initial screening after plasmid transfection, value ± spread, (n) in cell
  Peak INa1.7: 118 ± 1 (22) pA/pF
hNav1.7; compared to sham transfected HEK1.7 cells
  effect on peak INa1.7 density: no significant effects

## NaviPA1mt1: GFP-fused NaviPA1 mutant, alanine substitution for ten serine residues (AAKAAKERRNRRKKKKQKMAAGEEKGDDEKLAKAGAEEAIRKKA; also: GFP fusion)
Nav1.7
  membrane Nav1.7 protein / Nav1.7 membrane integration: not to impede
Human Nav1.8; HEK1.8 cells
  effect on INa1.8: did not change
hNav1.7; HEK1.7 cells
  INa1.7 in presence of NaviPA1 mutants: comparable to naïve and GFPNP transfected HEK1.7 cells

## NaviPA1mt2: GFP-fused NaviPA1 mutant, alanine substitution for nine arginine or lysine within predicted polybasic NLS (SSKSAKEAANAAAAAAQAMSSGEEKGDDEKLSKSGSEESIRKKS; also: GFP fusion)
Nav1.7
  membrane Nav1.7 protein / Nav1.7 membrane integration: not to impede
Human Nav1.8; HEK1.8 cells
  effect on INa1.8: did not change
hNav1.7; HEK1.7 cells
  INa1.7 in presence of NaviPA1 mutants: comparable to naïve and GFPNP transfected HEK1.7 cells
